# Laboratory results: patent publication US20160032013A1 (Genentech, published 2016)
# T1: Mouse RON on cells (3T3-mRON cells; mouse colon and skin) (mouse, UniProt Q62190 24-1378)
# T1 sequence: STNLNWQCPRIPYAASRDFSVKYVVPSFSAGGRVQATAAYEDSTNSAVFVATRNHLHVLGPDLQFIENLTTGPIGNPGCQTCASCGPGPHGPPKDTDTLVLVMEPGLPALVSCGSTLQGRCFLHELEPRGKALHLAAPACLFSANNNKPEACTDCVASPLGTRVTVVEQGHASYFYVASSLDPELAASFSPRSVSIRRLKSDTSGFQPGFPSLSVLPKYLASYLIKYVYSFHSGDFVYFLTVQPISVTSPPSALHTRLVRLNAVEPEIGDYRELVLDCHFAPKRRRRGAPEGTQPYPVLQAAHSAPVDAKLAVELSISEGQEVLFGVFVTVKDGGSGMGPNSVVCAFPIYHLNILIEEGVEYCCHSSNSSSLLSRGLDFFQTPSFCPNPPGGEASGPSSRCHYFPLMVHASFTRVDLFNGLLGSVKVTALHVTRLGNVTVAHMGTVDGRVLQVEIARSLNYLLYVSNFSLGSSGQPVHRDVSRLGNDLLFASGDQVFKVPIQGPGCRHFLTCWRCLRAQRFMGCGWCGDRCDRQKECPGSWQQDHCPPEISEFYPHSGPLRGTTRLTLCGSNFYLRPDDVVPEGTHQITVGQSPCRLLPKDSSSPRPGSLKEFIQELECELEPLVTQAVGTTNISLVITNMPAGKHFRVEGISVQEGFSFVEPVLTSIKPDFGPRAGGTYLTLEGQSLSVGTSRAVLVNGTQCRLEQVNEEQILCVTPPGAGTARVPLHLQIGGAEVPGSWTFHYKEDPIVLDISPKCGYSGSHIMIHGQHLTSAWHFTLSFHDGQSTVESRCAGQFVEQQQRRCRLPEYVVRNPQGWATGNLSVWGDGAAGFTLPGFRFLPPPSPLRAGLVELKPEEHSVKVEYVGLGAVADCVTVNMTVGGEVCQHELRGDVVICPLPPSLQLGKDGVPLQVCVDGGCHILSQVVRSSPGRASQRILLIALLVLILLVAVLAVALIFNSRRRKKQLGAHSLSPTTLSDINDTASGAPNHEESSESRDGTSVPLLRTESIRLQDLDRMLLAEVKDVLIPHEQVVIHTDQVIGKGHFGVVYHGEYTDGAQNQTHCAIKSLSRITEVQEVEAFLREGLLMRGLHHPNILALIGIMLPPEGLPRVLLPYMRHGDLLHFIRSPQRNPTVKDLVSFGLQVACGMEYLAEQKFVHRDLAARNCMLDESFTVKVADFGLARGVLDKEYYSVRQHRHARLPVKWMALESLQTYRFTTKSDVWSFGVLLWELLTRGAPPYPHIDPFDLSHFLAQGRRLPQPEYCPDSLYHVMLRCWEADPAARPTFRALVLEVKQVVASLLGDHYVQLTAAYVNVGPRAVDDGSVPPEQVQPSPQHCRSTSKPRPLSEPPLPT
# Tests used:
# [1] = molecular target: T2, Mouse RON-hIgG1 Fc (murine RON Sema/PSI/IPT1, natural leader + R33-V684, fused to human IgG1 Fc) (mouse); experiment: SPR (Biacore), anti-Fc chip, murine RON-Fc captured and MSP protein injected; table headed 'Similar High Affinities for Murine RON'
# T2 construct: also called mRON-hFc; murine RON-Fc
# Experimental: (§1) Binding kinetics of RON to MSP β-Fc fusion proteins and MSP proteins to RON-Fc fusions were determined using a Biacore 3000 optical biosensor equipped with a research-grade CM5 sensor chip (GE Healthcare). Amine coupling reagents, N-ethyl-N′-dimethylamino-propylcarbodiimide (EDC), N-hydroxy-succinimide (NHS) and sodium ethanolamine HCl, pH 8.5, were obtained from GE Healthcare. Standard coupling protocols were used to tether a rabbit anti-human IgG1 or rabbit anti-murine IgG2a (Jackson ImmunoResearch Laboratories) onto the biosensor surface. A biosensor chip that was subjected to the amine coupling procedure with no protein coupled was used to correct for non-specific binding. […] Various concentrations (500-3.9 nM, 2-fold dilution series) of RON-His, were injected in HBS-P buffer (10 mM HEPES, pH 7.5, 150 mM NaCl, 0.005% P20) at 25° C. with a flow rate of 30 μL/min and dissociation monitored for 240 sec. Between measurements, the biosensor surfaces were regenerated with a 120 s pulse of 10 mM glycine-HCl pH 1.5 followed by a 120 s wash with running buffer.
# To function as a RON agonist, MSPβ-IgG2a fusion proteins must bind the RON receptor. To assay binding, surface plasmon resonance was used to measure the affinity of full-length human MSP, human and mouse MSP β, and a number of human and mouse MSPβ-IgG2a fusions for immobilized RON receptor. […]
# [2] = molecular target: T1, Mouse RON on cells (3T3-mRON cells; …); experiment: cell-based or functional assay
# [3] = molecular target: T1, Mouse RON on cells (3T3-mRON cells; …); experiment: flow cytometry on 3T3-mRON cells
# [4] = molecular target: T2, Mouse RON-hIgG1 Fc (murine RON …); experiment: SPR (Biacore), anti-Fc chip; legend names murine RON-Fc; the sheet's scheme ('RON or MSP' over 'MSP-Fc or RON-Fc') and have the MSPβ-Fc fusion captured and soluble RON-His injected
# Experimental: as §1
# [5] = molecular target: T3, Human RON-hIgG1 Fc (RON Sema/PSI/IPT1 fused to human IgG1 Fc) (human); experiment: SPR capturing RON-Fc at 25 C
# T3 construct: also called RON-Fc; hRON-Fc
# T3 sequence (chain, as listed by the source limits assumed): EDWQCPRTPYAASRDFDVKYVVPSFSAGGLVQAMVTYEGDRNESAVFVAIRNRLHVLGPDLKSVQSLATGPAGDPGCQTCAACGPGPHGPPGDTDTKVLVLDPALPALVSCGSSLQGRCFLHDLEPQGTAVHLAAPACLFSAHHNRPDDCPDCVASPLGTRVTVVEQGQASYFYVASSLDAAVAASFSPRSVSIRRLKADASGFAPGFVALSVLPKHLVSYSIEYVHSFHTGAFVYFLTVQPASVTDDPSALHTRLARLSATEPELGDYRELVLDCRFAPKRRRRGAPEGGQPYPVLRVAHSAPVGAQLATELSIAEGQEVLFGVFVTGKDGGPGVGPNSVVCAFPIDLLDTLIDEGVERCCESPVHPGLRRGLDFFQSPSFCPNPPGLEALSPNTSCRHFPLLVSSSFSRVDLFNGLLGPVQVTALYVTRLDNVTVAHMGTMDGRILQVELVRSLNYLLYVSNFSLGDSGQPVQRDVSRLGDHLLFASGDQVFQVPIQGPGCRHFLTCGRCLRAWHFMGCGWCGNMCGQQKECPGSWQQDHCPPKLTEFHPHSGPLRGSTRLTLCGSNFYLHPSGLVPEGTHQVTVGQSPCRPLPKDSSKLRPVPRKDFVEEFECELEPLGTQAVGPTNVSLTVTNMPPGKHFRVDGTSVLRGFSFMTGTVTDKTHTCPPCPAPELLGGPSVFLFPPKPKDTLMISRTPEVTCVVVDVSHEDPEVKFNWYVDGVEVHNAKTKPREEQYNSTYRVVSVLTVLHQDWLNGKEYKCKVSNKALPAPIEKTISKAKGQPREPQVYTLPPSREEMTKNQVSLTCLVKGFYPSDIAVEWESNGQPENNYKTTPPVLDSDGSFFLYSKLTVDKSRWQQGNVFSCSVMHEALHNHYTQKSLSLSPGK
# Experimental: To determine MSP protein binding kinetics to hRON-Fc or mRON-Fc fusion proteins, between 50 and 100 response units (RU) were captured on each of three immobilized anti-human Fc surfaces. Various concentrations (50-0.78 nM, 2-fold dilution series) of MSP, MSP β, MSP α or scMSP were injected in HBS-P buffer (10 mM HEPES, pH 7.5, 150 mM NaCl, 0.005% P20) at 25° C. with a flow rate of 30 μL/min and dissociation monitored for 4 min. Between measurements, the biosensor surfaces were regenerated with a 2 min pulse of 10 mM glycine-HCl pH 1.5.
# [6] = molecular target: T4, Recombinant human RON Sema/PSI (residues E25-P568) with C-terminal His-tag (human, UniProt Q04912 25-568); experiment: SPR using immobilized RON Sema/PSI at 25 C
# T4 construct: Made in Trichoplusia ni insect cells
# [7] = molecular target: T3, Human RON-hIgG1 Fc (RON Sema/PSI/IPT1 …); experiment: BLI using RON-Fc at 30 C
# Experimental: Real-time kinetic measurements of MSP binding to RON were conducted using an Octet RED384 (ForteBio, Inc). Samples or buffer were dispensed into 96-well microtiter plates (Greiner Bio-One North America, Inc.) at a volume of 200 μl per well. Anti-human IgG Fc Biosensors were used for the experiments. Each experiment consisted of three steps: incubation with ForteBio Kinetic buffer diluted 1:10 in PBS assay buffer to establish an equilibrium for 120 s (baseline), incubation with 10 μg/ml RON-Fc in assay buffer to coat the biosensor with binding target for 900 s (load), incubation with MSP, MSP β or scMSP in assay buffer containing various concentrations (75-4.7 nM, 2-fold dilution series) for 400 s (association), and incubation with assay buffer to measure the off-rate of MSP for 400 s (dissociation). Operating temperature was maintained at 30° C. Data were generated automatically by the Octet Data Acquisition 7.0 software. Each data set was fitted globally to a simple one-to-one binding model using ForteBio Analysis Software 7.0 to determine the kinetic parameters kₐ and kd. The equilibrium dissociation constants (KD) were then calculated as a ratio (koff/kₒₙ) of these rate constants.
Binder,Kd [1] [nM],"fold increase in Akt phosphorylation, MSD, colon of injected mice [2] [fold]",EC50 (read off the curve) [3] [µg/mL],Kd [4] [nM],also measured
"Hexahistidine-tagged murine MSP β (HGF leader + V489-E716 + C593A + C677A + His tag) (ligand, also called Mouse MSP β) VVGGHPGNSPWTVSLRNRQGQHFCGGSLVKEQWVLTARQCIWSCHEPLTGYEVWLGTINQNPQPGEANLQRVPVAKAVCGPAGSQLVLLKLERPVILNHHVALIALPPEQYVVPPGTKCEIAGWGESIGTSNNTVLHVASMNVISNQECNTKYRGHIQESEICTQGLVVPVGACEGDYGGPLACYTHDAWVLQGLIIPNRVCARPRWPAIFTRVSVFVDWINKVMLEHHHHHHH",6.4,,,,
"Human MSP β 689R (HGF leader + V484-G711 + C588S + C672A + His tag) (ligand, This is an inference) VVGGHPGNSPWTVSLRNRQGQHFCGGSLVKEQWILTARQCFSSCHMPLTGYEVWLGTLFQNPQHGEPSLQRVPVAKMVCGPSGSQLVLLKLERSVTLNQRVALISLPPEWYVVPPGTKCEIAGWGETKGTGNDTVLNVALLNVISNQECNIKHRGRVRESEMCTEGLLAPVGACEGDYGGPLACFTHNAWVLEGIIIPNRVCARSRWPAVFTRVSVFVDWIHKVMRLGHHHHHH",5.1,,,,Kd [5]: 9.6 nM; koff [5]: 0.0275 s⁻¹; kon [5]: 3.53e+06 M⁻¹ s⁻¹; Kd [6]: 6.6 nM; koff [6]: 0.0159 s⁻¹; kon [6]: 2.45e+06 M⁻¹ s⁻¹; Kd [7]: 7.5 nM; koff [7]: 0.0025 s⁻¹; kon [7]: 388000 M⁻¹ s⁻¹
"Mouse MSP β-L4-mIgG2a Fc (Fc fusion, also called m4m) VVGGHPGNSPWTVSLRNRQGQHFCGGSLVKEQWVLTARQCIWSCHEPLTGYEVWLGTINQNPQPGEANLQRVPVAKAVCGPAGSQLVLLKLERPVILNHHVALIALPPEQYVVPPGTKCEIAGWGESIGTSNNTVLHVASMNVISNQECNTKYRGHIQESEICTQGLVVPVGACEGDYGGPLACYTHDAWVLQGLIIPNRVCARPRWPAIFTRVSVFVDWINKVMQLETIKPCPPCKCPAPNLLGGPSVFIFPPKIKDVLMISLSPIVTCVVVDVSEDDPDVQISWFVNNVEVHTAQTQTHREDYNSTLRVVSALPIQHQDWMSGKEFKCKVNNKDLPAPIERTISKPKGSVRAPQVYVLPPPEEEMTKKQVTLTCMVTDFMPEDIYVEWTNNGKTELNYKNTEPVLDSDGSYFMYSKLRVEKKNWVERNSYSCSVVHEGLHNHHTTKSFSRTPGK",,~2.6,,8.3,

# The next lines start with results.
Kd [1] [nM],"fold increase in Akt phosphorylation, MSD, colon of injected mice [2] [fold]",EC50 (read off the curve) [3] [µg/mL],Kd [4] [nM],Binder,also measured
,~2.3,~0.05,10.4,"Mouse MSP β-L12-mIgG2a Fc (Fc fusion, also called m12m; mMSPβ-L12-mIgG2a) VVGGHPGNSPWTVSLRNRQGQHFCGGSLVKEQWVLTARQCIWSCHEPLTGYEVWLGTINQNPQPGEANLQRVPVAKAVCGPAGSQLVLLKLERPVILNHHVALIALPPEQYVVPPGTKCEIAGWGESIGTSNNTVLHVASMNVISNQECNTKYRGHIQESEICTQGLVVPVGACEGDYGGPLACYTHDAWVLQGLIIPNRVCARPRWPAIFTRVSVFVDWINKVMQLEKKIEPRGPTIKPCPPCKCPAPNLLGGPSVFIFPPKIKDVLMISLSPIVTCVVVDVSEDDPDVQISWFVNNVEVHTAQTQTHREDYNSTLRVVSALPIQHQDWMSGKEFKCKVNNKDLPAPIERTISKPKGSVRAPQVYVLPPPEEEMTKKQVTLTCMVTDFMPEDIYVEWTNNGKTELNYKNTEPVLDSDGSYFMYSKLRVEKKNWVERNSYSCSVVHEGLHNHHTTKSFSRTPGK",
,~2.5,~0.05,8.4,"Mouse MSP β-L16-mIgG2a Fc (Fc fusion, also called m16m) VVGGHPGNSPWTVSLRNRQGQHFCGGSLVKEQWVLTARQCIWSCHEPLTGYEVWLGTINQNPQPGEANLQRVPVAKAVCGPAGSQLVLLKLERPVILNHHVALIALPPEQYVVPPGTKCEIAGWGESIGTSNNTVLHVASMNVISNQECNTKYRGHIQESEICTQGLVVPVGACEGDYGGPLACYTHDAWVLQGLIIPNRVCARPRWPAIFTRVSVFVDWINKVMQLEQVTDKKIEPRGPTIKPCPPCKCPAPNLLGGPSVFIFPPKIKDVLMISLSPIVTCVVVDVSEDDPDVQISWFVNNVEVHTAQTQTHREDYNSTLRVVSALPIQHQDWMSGKEFKCKVNNKDLPAPIERTISKPKGSVRAPQVYVLPPPEEEMTKKQVTLTCMVTDFMPEDIYVEWTNNGKTELNYKNTEPVLDSDGSYFMYSKLRVEKKNWVERNSYSCSVVHEGLHNHHTTKSFSRTPGK",
,~2,~0.05,8.5,"Mouse MSP β-L8-mIgG2a Fc (Fc fusion, also called m8m) VVGGHPGNSPWTVSLRNRQGQHFCGGSLVKEQWVLTARQCIWSCHEPLTGYEVWLGTINQNPQPGEANLQRVPVAKAVCGPAGSQLVLLKLERPVILNHHVALIALPPEQYVVPPGTKCEIAGWGESIGTSNNTVLHVASMNVISNQECNTKYRGHIQESEICTQGLVVPVGACEGDYGGPLACYTHDAWVLQGLIIPNRVCARPRWPAIFTRVSVFVDWINKVMQLEPRGPTIKPCPPCKCPAPNLLGGPSVFIFPPKIKDVLMISLSPIVTCVVVDVSEDDPDVQISWFVNNVEVHTAQTQTHREDYNSTLRVVSALPIQHQDWMSGKEFKCKVNNKDLPAPIERTISKPKGSVRAPQVYVLPPPEEEMTKKQVTLTCMVTDFMPEDIYVEWTNNGKTELNYKNTEPVLDSDGSYFMYSKLRVEKKNWVERNSYSCSVVHEGLHNHHTTKSFSRTPGK",
